Laboratory results taken from PMC7763554, “The Two-Component System CopRS Maintains Subfemtomolar Levels of Free Copper in the Periplasm of Pseudomonas aeruginosa Using a Phosphatase-Based Mechanism” (mSphere, 2020).

Target: the molecule itself
Assay: SDS-PAGE; 10 ug of purified protein on 8 to 16% gradient SDS-PAGE, Coomassie blue G250; monomer and dimer bands with expected masses of 19 and 38 kDa

B1: His-tagged CopS(34-151), periplasmic copper binding loop (sensor domain) of Pseudomonas aeruginosa CopS (domain or fragment, UniProt Q9I033 34-151, looked up)
chain: FSRAIDEHFVELDHMAMSAKLAVFRDELRGLGSEQQMRRREAELLRELARHPDLGLRLNGPDGNLWFERLPQPAHPGLPANRELGAPLEPGNDASPRLTVILDISHHQHFLQRMRQLI
notes: CopS, sensor histidine kinase of the two-component system CopRS, Pseudomonas aeruginosa PAO1; periplasmic sensor domain, residues 34-151, amplified from genomic DNA; The His6 tag is joined by a TEV cleavage site, and the tag was not cleaved; The expected monomer mass is printed as 19 kDa, which is more than residues 34-151 plus the tag would give, so the pBAD-topo vector may add residues …
Q: Which “stoichiometry N” value does the source give for B1 here?
A: 2
